Experimental data reported in article PMC4893198.

What was measured:
OST-NLS-mCherry-NRF2 = OST-NLS-mCherry-NRF2 (UniProt Q16236); experiment: pull-down
OST-progerin (human) = OST-progerin (human) (UniProt P02545); experiment: pull-down

HA-progerin (from UniProt P02545-6 1-614) (natural protein)
interaction relative to WT lamin A (OST-NLS-mCherry-NRF2): 248%

B1: FLAG-NLS-NRF2 (natural protein)
chain: MMDLELPPPGLPSQQDMDLIDILWRQDIDLGVSREVFDFSQRRKEYELEKQKKLEKERQEQLQKEQEKAFFAQLQLDEETGEFLPIQPAQHIQSETSGSANYSQVAHIPKSDALYFDDCMQLLAQTFPFVDDNEVSSATFQSLVPDIPGHIESPVFIATNQAQSPETSVAQVAPVDLDGMQQDIEQVWEELLSIPELQCLNIENDKLVETTMVPSPEAKLTEVDNYHFYSSIPSMEKEVGNCSPHFLNAFEDSFSSILSTEDPNQLTVNSLNSDATVNTDFGDEFYSAFIAEPSISNSMPSPATLSHSLSELLNGPIDVSDLSLCKAFNQNHPESTAEFNDSDSGISLNTSPSVASPEHSVESSSYGDTLLGLSDSEVEELDSAPGSVKQNGPKTPVHSSGDMVQPLSPSQGQSTHVHDAQCENTPEKELPVSPGHRKTPFTKDKHSSRLEAHLTRDELRAKALHIPFPVEKIINLPVVDFNEMMSKEQFNEAQLALIRDIRRRGKNKVAAQNCRKRKLENIVELEQDLDHLKDEKEKLLKEKGENDKSLHLLKKQLSTLYLEVFSMLRDEDGKPYSPSEYSLQQTRDGNVFLVPKSKKPDVKKN
NRF2 pulled down relative to OST-lamin A (OST-progerin (human)): 142%

B2: recombinant HIS6x-NRF2 (natural protein)
chain: B1 chain
NRF2 bound relative to OST-lamin A (OST-progerin (human)): 275%
